Laboratory results: paper PMC8568656

Molecular target: DOPAL-derived αS oligomers (αS incubated with 3,4-dihydroxyphenylacetaldehyde)
Assay: SDS-PAGE of SEC fractions

stoichiometry N: 2
Substance: DOPAL-derived αS oligomers (αS incubated with 3,4-dihydroxyphenylacetaldehyde)
